Experimental data: PMC3095675 (Journal of molecular biology, 2011)

How the values were obtained:
[1] = biological target: Cp149.G123A (Hepatitis B virus) (UniProt P03147); test: SEC
[2] = biological target: Cp149.G123A (Hepatitis B virus) (UniProt P03147); test: AUC
[3] = biological target: Cp149.G123A.T114A (Hepatitis B virus) (UniProt P03147); test: AUC
[4] = biological target: Cp149.R127A (Hepatitis B virus) (UniProt P03147); test: AUC
[5] = biological target: Cp149.R127A.G123A (Hepatitis B virus) (UniProt P03147); test: AUC
[6] = biological target: Cp149.S141A (Hepatitis B virus) (UniProt P03147); test: AUC
[7] = biological target: Cp149.T114A (Hepatitis B virus) (UniProt P03147); test: AUC
[8] = biological target: Cp149.Y132A (Hepatitis B virus) (UniProt P03147); test: AUC
[9] = biological target: Cp149.Y132A.G123A.R127A (Hepatitis B virus) (UniProt P03147); test: AUC
[10] = biological target: Cp(−10)149.5A (Hepatitis B virus) (UniProt P03147); test: cross-linking
[11] = biological target: Cp(−10)149.G123A (Hepatitis B virus) (UniProt P03147); test: AUC
[12] = biological target: Cp(−10)149d.C(−7)A.C61.C48A.C107A (Hepatitis B virus) (UniProt P03147); test: cross-linking
[13] = biological target: Cp(−10)149d.C(−7)A.C61.C48A.C107A (Hepatitis B virus) (UniProt P03147); test: AUC
[14] = biological target: the molecule itself; test: cross-linking
[15] = biological target: the molecule itself; test: AUC

**Q.** Which stoichiometry N [1] does the source give for “Cp149.G123A (from UniProt P03147 1-149) (domain or fragment)” here?
**A.** 2

**Q.** What about the stoichiometry N [2] of the same molecule?
**A.** 2

**Q.** “Cp149.G123A.T114A (from UniProt P03147 1-149) (domain or fragment)” was tested. Which stoichiometry N [3] did it give?
**A.** 2

**Q.** Which stoichiometry N [4] does the source give for “Cp149.R127A (from UniProt P03147 1-149) (domain or fragment)” here?
**A.** 2

**Q.** With “Cp149.R127A.G123A (from UniProt P03147 1-149) (domain or fragment)” as the molecule, how does the stoichiometry N [5] read?
**A.** 2

**Q.** “Cp149.S141A (from UniProt P03147 1-149) (domain or fragment)” was tested. Which stoichiometry N [6] did it give?
**A.** 2

**Q.** “Cp149.T114A (from UniProt P03147 1-149) (domain or fragment)” was tested. Which stoichiometry N [7] did it give?
**A.** 2

**Q.** “Cp149.Y132A (from UniProt P03147 1-149) (domain or fragment)” was tested. Which stoichiometry N [8] did it give?
**A.** 2

**Q.** With “Cp149.Y132A.G123A.R127A (from UniProt P03147 1-149) (domain or fragment)” as the molecule, how does the stoichiometry N [9] read?
**A.** 2

**Q.** How did the stoichiometry N [10] turn out when “Cp(−10)149.5A (from UniProt P03147 1-149) (natural protein)” was run?
**A.** 2

**Q.** “Cp(−10)149.G123A (from UniProt P03147 1-149) (natural protein)” was tested. Which stoichiometry N [11] did it give?
**A.** 2

**Q.** With “Cp(−10)149d.C(−7)A.C61.C48A.C107A (from UniProt P03147 1-149) (natural protein)” as the molecule, how does the stoichiometry N [12] read?
**A.** 2

**Q.** What about the stoichiometry N [13] of the same molecule?
**A.** 2

B1: Cp149.4A (domain or fragment)
chain: MDIDPYKEFGATVELLSFLPSDFFPSVRDLLDTAAALYRDALESPEHASPHHTALRQAILCWGDLMTLATWVGTNLEDPASRDLVVSYVNTNVGLKFRQLLWFHISALTFGRETVLEYLVSFAVWIATPPAYRPPNAPILSTLPETTVV
**Q.** How did the “stoichiometry N” value [14] turn out when B1 was run?
**A.** 2

B2: Cp141 (domain or fragment)
chain: MDIDPYKEFGATVELLSFLPSDFFPSVRDLLDTAAALYRDALESPEHCSPHHTALRQAILCWGDLMTLATWVGTNLEDPASRDLVVSYVNTNVGLKFRQLLWFHISCLTFGRETVLEYLVSFGVWIRTPPAYRPPNAPILS
**Q.** Which “stoichiometry N” value [15] does the source give for B2 here?
**A.** 2

B3: Cp143 (domain or fragment)
chain: MDIDPYKEFGATVELLSFLPSDFFPSVRDLLDTAAALYRDALESPEHCSPHHTALRQAILCWGDLMTLATWVGTNLEDPASRDLVVSYVNTNVGLKFRQLLWFHISCLTFGRETVLEYLVSFGVWIRTPPAYRPPNAPILSTL
**Q.** How did the “stoichiometry N” value [15] turn out when B3 was run?
**A.** 2
